The labels stand for the following.
T1: mouse TREM2 on BWZ cells (mouse, UniProt Q99NH8 19-227)
T1 construct: whole, on cells; also called BWZ Mouse TREM2
T1 sequence (looked up): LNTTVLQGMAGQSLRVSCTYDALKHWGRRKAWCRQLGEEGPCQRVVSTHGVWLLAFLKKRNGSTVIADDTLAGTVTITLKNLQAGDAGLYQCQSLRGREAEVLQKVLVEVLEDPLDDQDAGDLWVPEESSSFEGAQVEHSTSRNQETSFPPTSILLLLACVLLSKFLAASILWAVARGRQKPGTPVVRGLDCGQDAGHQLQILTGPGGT

T2: human TREM2 on BWZ cells (human, UniProt Q9NZC2 19-230)
T2 construct: whole, on cells; not tied to the cell line; also called BWZ Human TREM2
T2 sequence (looked up): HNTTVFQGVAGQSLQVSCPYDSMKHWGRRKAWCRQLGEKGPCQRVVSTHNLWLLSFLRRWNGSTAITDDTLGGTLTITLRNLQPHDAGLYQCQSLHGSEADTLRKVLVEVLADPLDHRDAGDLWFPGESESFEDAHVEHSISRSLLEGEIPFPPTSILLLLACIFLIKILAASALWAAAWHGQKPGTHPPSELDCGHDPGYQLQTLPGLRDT

B1: T1-59 (antibody, IgG1, V domains shown)
VH: QVQLQESGPGLVKPSETLSLTCAVSGYSISSGYYWAWIRQPPGKGLEWIGSIYHSGSTYYNPSLKSRVTISVDTSKNQFSLKLSSVTAADTAVYYCARDLGGYEGAFDPWGQGTLVTVSS
VL: not shown
notes: huIgG1; also called TI-59; ADI-19135
B2: T1-64 (antibody, IgG1, V domains shown)
VH: QLQLQESGPGLVKPSETLSLTCTVSGGSISSSSYYWGWIRQPPGKGLEWIGSISYSGSTYYNPSLKSRVTISVDTSKNQFSLKLSSVTAADTAVYYCARYYSPYGMDVWGQGTTVTVSS
VL: not shown
notes: huIgG1; also called TI-64; ADI-19140
B3: T1-42 (antibody, IgG1, V domains shown)
VH: QVQLVESGGGVVQPGRSLRLSCAASGFTFSSYGMHWVRQAPGKGLEWVAVIWYDGSNKGYADSVKGRFTISRDNSKNTLYLQMNSLRAEDTAVYYCARELMVTSGGWLYGMDVWGQGTTVTVSS
VL: EIVMTQSPATLSVSPGERATLSCRASQSVSSNLAWYQQKPGQAPRLLIYGASTRATGIPARFSGSGSGTEFTLTISSLQSEDFAVYYCQQYNVHPPRTFGGGTKVEIK
notes: huIgG1; also called TI-42; ADI-19116
B4: T1-68 (antibody, IgG1, V domains shown)
VH: EVQLVQSGAEVKKPGESLKISCKGSGYSFTTYWIGWVRQMPGKGLEWMGIIYPGDSDTRYSPSFQGQVTISADKSISTAYLQWSSLKASDTAMYYCARGSPWDGRLFDIWGQGTMVTVSS
VL: EIVLTQSPATLSLSPGERATLSCRASQSVSSYLAWYQQKPGQAPRLLIYDASNRATGIPARFSGSGSGTDFTLTISSLEPEDFAVYYCQQFDNLPYTFGGGTKVEIK
notes: huIgG1; also called TI-68; ADI-19144
B5: T1-9 (antibody, IgG1, V domains shown)
VH: QVQLVQSGAEVKKPGASVKVSCKASGYTFTSYYMHWVRQAPGQGLEWMGIINPSGGSTSYAQKFQGRVTMTRDTSTSTVYMELSSLRSEDTAVYYCAREAGYDISSAFDIWGQGTMVTVSS
VL: not shown
notes: huIgG1; also called TI-9; ADI-19076
B6: T1-6 (antibody, IgG1, V domains shown)
VH: B5 VH with I50V, A100S, Y102H, D103S, I104Y, S105V, A107S, I110P, M116L
VL: not shown
notes: huIgG1; also called TI-6; ADI-19072
B7: T1-53 (antibody, IgG1, V domains shown)
VH: B5 VH with M34I, A100S, D103H, I104V, S106T
VL: not shown
notes: huIgG1; also called TI-53; ADI-19128
B8: T1-51 (antibody, IgG1, V domains shown)
VH: QVQLVQSGAEVKKPGSSVKVSCKASGGTFSSYAISWVRQAPGQGLEWMGSIIPIFGTANYAQKFQGRVTITADESTSTAYMELSSLRSEDTAVYYCARSGGYSSSWYGTGYDYWGQGTLVTVSS
VL: DIQMTQSPSTLSASVGDRVTITCRASQSISSWLAWYQQKPGKAPKLLIYKASSLESGVPSRFSGSGSGTEFTLTISSLQPDDFATYYCQQFQSYPFTFGGGTKVEIK
notes: huIgG1; also called TI-51; ADI-19126
B9: T1-63 (antibody, IgG1, V domains shown)
VH: QVQLQESGPGLVKPSETLSLTCAVSGYSISSGYYWGWIRQPPGKGLEWIGSIYHSGNTYYNPSLKSRVTISVDTSKNQFSLKLSSVTAADTAVYYCARELYAYSSPMFYGMDVWGRGTTVTVSS
VL: DIQMTQSPSSLSASVGDRVTITCRASQSISRYLNWYQQKPGKAPKLLIYAASSLQSGVPSRFSGSGSGTDFTLTISSLQPEDFATYYCQQLYHAPPITFGGGTKVEIK
notes: huIgG1; also called TI-63; ADI-19139
B10: T1-56 (antibody, IgG1, V domains shown)
VH: EVQLVESGGGLVQPGRSLRLSCAASGFTFDDYAMHWVRQAPGKGLEWVSGISWNSGSIGYADSVKGRFTISRDNAKNSLYLQMNSLRAEDTALYYCAKGPRLLGYFDLWGRGTLVTVSS
VL: not shown
notes: huIgG1; also called TI-56; ADI-19131
B11: T1-44 (antibody, IgG1, V domains shown)
VH: QVQLVQSGAEVKKPGASVKVSCKASGYTFTSYYMHWVRQAPGQGLEWMGVINPSGGSTSYAQKFQGRVTMTRDTSTSTVYMELSSLRSEDTAVYYCAREGSGYDESMDVWGQGTTVTVSS
VL: not shown
notes: huIgG1; also called TI-44; ADI-19119
B12: T1-8 (antibody, IgG1, V domains shown)
VH: B11 VH with V50I, G100V, G102M, Y103T, D104A, E105A, M107L, T115M
VL: not shown
notes: huIgG1; also called TI-8; ADI-19074
B13: T1-10 (antibody, IgG1, V domains shown)
VH: B11 VH with V50I, Y103S, D104W, S106T, M107L, T115M
VL: not shown
notes: huIgG1; also called TI-10; ADI-19077
B14: T1-46 (antibody, IgG1, V domains shown)
VH: B11 VH
VL: not shown
notes: huIgG1; also called TI-46; ADI-19124
B15: T1-45 (antibody, IgG1, V domains shown)
VH: B11 VH
VL: not shown
notes: huIgG1; also called TI-45; ADI-19123
B16: T1-48 (antibody, IgG1, V domains shown)
VH: B11 VH with S54G, G100A, S101G, G102Q, Y103T, D104S, E105S, S106A, M107L, T115M
VL: not shown
notes: huIgG1; also called TI-48; ADI-19121
B17: T1-57 (antibody, IgG1, V domains shown)
VH: EVQLVESGGGLVQPGRSLRLSCAASGFTFDDYAMHWVRQAPGKGLEWVSGITWNSGSIGYADSVKGRFTISRDNAKNSLYLQMNSLRAEDTALYYCAKGPRYSKPYFDYWGQGTLVTVSS
VL: DIQMTQSPSSVSASVGDRVTITCRASQGIDSWLAWYQQKPGKAPKLLIYAASSLQSGVPSRFSGSGSGTDFTLTISSLQPEDFATYYCQQRAVFPPTFGGGTKVEIK
notes: huIgG1; also called TI-57; ADI-19132
B18: T1-55 (antibody, IgG1, V domains shown)
VH: QVQLVQSGAEVKKPGASVKVSCKASGYTFTSYYMHWVRQAPGQGLEWMGVINPSGGSTSYAQKFQGRVTMTRDTSTSTVYMELSSLRSEDTAVYYCARGADYYAGFDYWGQGTLVTVSS
VL: not shown
notes: huIgG1; also called TI-55; ADI-19130
B19: T1-61 (antibody, IgG1, V domains shown)
VH: QVQLQESGPGLVKPSETLSLTCAVSGYSISSGYYWGWIRQPPGKGLEWIGSIYHSGSTYYNPSLKSRVTISVDTSKNQFSLKLSSVTAADTAVYYCARHDDYLSSFDPWGQGTLVTVSS
VL: not shown
notes: huIgG1; also called TI-61; ADI-19137
B20: T1-43 (antibody, IgG1, V domains shown)
VH: QVQLVQSGAEVKKPGASVKVSCKASGYTFTSYYMHWVRQAPGQGLEWMGIINPSGGSTSYAQKFQGRVTMTRDTSTSTVYMELSSLRSEDTAVYYCAREAGNYYDIESAFDIWGQGTMVTVSS
VL: not shown
notes: huIgG1; also called TI-43; ADI-19117
B21: T1-52 (antibody, IgG1, V domains shown)
VH: QVQLVQSGAEVKKPGSSVKVSCKASGGTFSSYAISWVRQAPGQGLEWMGSIIPIFGTANYAQKFQGRVTITADESTSTAYMELSSLRSEDTAVYYCARDRGQYSSSWYGRMDVWGQGTTVTVSS
VL: DIQMTQSPSTLSASVGDRVTITCRASQSISSWLAWYQQKPGKAPKLLIYKASSLESGVPSRFSGSGSGTEFTLTISSLQPDDFATYYCQQSSADSPFTFGGGTKVEIK
notes: huIgG1; also called TI-52; ADI-19127
B22: T1-50 (antibody, IgG1, V domains shown)
VH: QVQLVQSGAEVKKPGASVKVSCKASGYTFTSYYMHWVRQAPGQGLEWMGIINPGGGSTSYAQKFQGRVTMTRDTSTSTVYMELSSLRSEDTAVYYCAREAGTMSSAFDIWGQGTMVTVSS
VL: not shown
notes: huIgG1; also called TI-50; ADI-19125
B23: T1-65 (antibody, IgG1, V domains shown)
VH: QLQLQESGPGLVKPSETLSLTCTVSGGSISSSDYYWGWIRQPPGKGLEWIGSIYYSGSTYYNPSLKSRVTISVDTSKNQFSLKLSSVTAADTAVYYCARDSGQYTGSLDVWGQGTMVTVSS
VL: not shown
notes: huIgG1; also called TI-65; ADI-19141
B24: T1-67 (antibody, IgG1, V domains shown)
VH: QVQLVQSGAEVKKPGASVKVSCKASGYTFTSYGIHWVRQAPGQGLEWMGWISAYNGNTNYAQKLQGRVTMTTDTSTSTAYMELRSLRSDDTAVYYCARGRPSSSWGNWFDPWGQGTTVTVSS
VL: EIVLTQSPGTLSLSPGERATLSCRASQSVSSSFLAWYQQKPGQAPRLLIYGASSRATGIPDRFSGSGSGTDFTLTISRLEPEDFAVYYCQQAVSLPWTFGGGTKVEIK
notes: huIgG1; also called TI-67; ADI-19143

Substitutions are numbered along the chain they refer to.

In the first test the target is T1, mouse TREM2 on BWZ cells. Nature of the test: FACS, BWZ cells. A general note: A flow cytometer gives signals particle by particle.
Turning to B1, the binding result is listed as “no binding”.
Consider B2, for which the binding result is reported as “no binding”.
Same read-out and setting: the same measure for B3: “no binding”; for B4: “no binding”; for B5: “no binding”.
B6: the binding result is “no binding”.
Regarding B7, the binding result is listed as “no binding”.
As for B8, the binding result is reported as “no binding”.
B9: the binding result was “no binding”.
Take B10: the binding result is “no binding”.
In the case of B11, the binding result was “no binding”.
B12: the binding result is “no binding”.
The same measure, in the same setting: the same measure for B13: “no binding”; for B14: “no binding”.
Consider B15, for which the binding result is reported as “no binding”.
B16: the binding result is given as “no binding”.
Take B17: the binding result is given as “no binding”.
For the molecule B18, the binding result is on record as “no binding”.
Regarding B19, the binding result is given as “no binding”.
The same measure, in the same setting: the same measure for B20: “no binding”; for B21: “no binding”; for B22: “no binding”.
As for B23, the binding result is “no binding”.
In the case of B24, the binding result is “no binding”.

A further test addresses T2, human TREM2 on BWZ cells. Nature of the test: FACS, BWZ cells.
In the case of B1, the binding result is given as “no binding”.
Take B2: the binding result is “no binding”.
The same measure, in the same setting: the entry for B3 is “no binding”; for B4 it is “no binding”.
On the same count and under the same terms, the same measure for B5: “no binding”; for B6: “no binding”.
As to B7, the binding result is on record as “no binding”.
B8: the binding result is listed as “no binding”.
As to B9, the binding result is listed as “no binding”.
B10: the binding result is recorded as “no binding”.
With B11, the binding result is given as “no binding”.
With B12, the binding result is reported as “no binding”.
As to B13, the binding result is “no binding”.
B14: the binding result is listed as “no binding”.
For B15, the binding result was “no binding”.
Turning to B16, the binding result is “no binding”.
On to B17, for which the binding result is “no binding”.
Still for that read-out and setting: the entry for B18 is “no binding”.
For the molecule B19, the binding result was “no binding”.
B20: the binding result is “no binding”.
Consider B21, for which the binding result is “no binding”.
Take B22: the binding result is “no binding”.
Take B23: the binding result is reported as “no binding”.
Turning to B24, the binding result is “no binding”.

For the origin of these results see patent US11472877 (Alector, dated 2022).
